{"source": "FireProtDB (doi:10.1093/protein/12.8.663)", "proteins": {"B1": {"name": "Lysozyme C wild type, P61626 (protein)", "chain": "MKALIVLGLVLLSVTVQGKVFERCELARTLKRLGMDGYRGISLANWMCLAKWESGYNTRATNYNAGDRSTDYGIFQINSRYWCNDGKTPGAVNACHLSCSALLQDNIADAVACAKRVVRDPQGIRAWVAWRNRCQNRDVRQYVQGCGV"}}, "conditions": "Homo sapiens; pH 2.7; Thermal; DSC; glycine 0.05 M; reversible: yes; whole UniProt chain shown", "data": [{"protein": "B1", "values": [{"measurement": "Tm", "result": 64.9, "unit": "°C"}, {"measurement": "heat capacity change of unfolding", "result": 1.58, "unit": "kcal/mol/K"}, {"measurement": "unfolding enthalpy (calorimetric)", "result": 114, "unit": "kcal/mol"}]}]}
